We go through 19 molecules from patent US20250243277A1 (AVACTA LIFE SCIENCES, published 2025).

The target of test [1] is papain (UniProt P00784). Nature of the test: cell-based or functional assay.
In test [2] the target is T1, human PD-L1-Fc (R&D Systems) (human, UniProt Q9NZQ7 19-239).
T1 construct: Bought from R&D Systems; Biotinylated in-house for the phage selection; also called huPD-L1-Fc; human PD-L1-Fc antigen; not shown: Fc part of the bought fusion
Nature of the test: SPR (Biacore 8K), binding to PD-L1-Fc. A general note: SPR reads the build-up and loss of mass on a sensor chip optically.

The target of test [3] is T2, human PD-L1 on CHO cells (human, UniProt Q9NZQ7 19-290). Nature of the test: cell-based or functional assay.
In test [4] the target is T1, human PD-L1-Fc (R&D Systems). Description: PD-1/PD-L1 competitive ELISA, average n = 2; competitor PD-1-Fc coated. The method, then:
(§1) The competitive inhibition of AFFIMER® multimers was evaluated by enzyme linked immunosorbent assay (ELISA). Human PD-1-Fc (R&D Systems) was coated at 0.5 μg/ml on the plate. Plates were washed two times with […] of washing buffer (PBS, Tween 20 0.1%) with a plate washer and saturated with Casein 5% (Sigma) in PBS for 90 minutes at room temperature (25±1° C.). Plates were subsequently washed. AFFIMER® polypeptides and controls (human PD-1-Fc; R&D Systems or blank) were then diluted in duplicate, and preincubated with huPD-L1-Fc (R&D Systems) at a predefined concentration equivalent to the EC₈₀ for 30 minutes then loaded on the plate for 90 minutes at room temperature (25±1° C.). Plates were washed 3 times. Biotinylated polyclonal antibody anti-human PD-L1 (R&D Systems) was then diluted in dilution buffer and incubated 90 minutes at room temperature (25±1° C.). Plates were washed 3 times and Streptavidin HRP was incubated for 30 minutes at room temperature (25±1° C.). Plates were washed and the substrate (TMB; Pierce Thermo-Scientific) added to the plate for 10 minutes. The reaction was stopped using an acidic solution and plates were read at absorbance 450-630 nm. The IC₅₀ was then calculated using the interpolated non-linear four-parameter standard curve.
Analysis identified three mutants which no longer bind target antigen, three mutants which have reduced binding and twelve (12) mutants which retaining binding to target antigen. […] The mutant AFFIMER® clones which retained binding to PD-L1 were assessed in both a competition ELISA (as described in Example 4) and the PD1:PD-L1 blockade cell-based Promega assay (as described in Example 5).

In test [5] the target is T2, human PD-L1 on CHO cells. Description: cell-based or functional assay. The source holds these as a separate data set.
Test [6] deals with T2, human PD-L1 on CHO cells. Description: cell-based or functional assay. This is another data set of the same source.
Test [7] deals with T2, human PD-L1 on CHO cells. Nature of the test: cell-based or functional assay. The source holds these as a separate data set.
For test [8], the target named is T2, human PD-L1 on CHO cells. Description: flow cytometry histogram, live-gated hu-PD-L1 CHO cells, Affimer at 100 nM. The method, then: Human PD-L1 CHO cells having a cell surface over expressing human PD-L1 or CHO-negative cells were plated at 50,000 cells per well in a round bottom tissue culture plate. AFFIMER® clones were titrated from 700 nM or monoclonal antibody (mAb) controls titrated from 10 nM in cell staining buffer (PBS, 1% BSA+2 mM EDTA+0.05% Sodium Azide buffer) and incubated for 1 hour. After two washes with staining buffer, AFFIMER® polypeptides were detected with an anti-cystatin antibody. After a further two washes, AF488-conjugated anti-goat antibody (to detect AFFIMER® polypeptides) or AF488-conjugated anti human IgG1 antibody (to detect mAb controls) were incubated for 40 minutes followed by an additional wash step. Viability dye (Zombie Aqua reagent, Biolegend) was added and the plates were incubated for 10 min. After a final wash, cells were fixed and the data acquired using a multiparameter flow cytometer (Guava 12HT, Luminex Corp).

Test [9] deals with T1, human PD-L1-Fc (R&D Systems). Description: PD-L1/PD-1 competition ELISA, % inhibition: Affimer pre-incubated with huPD-L1-Fc, then loaded on plate-coated human PD-1-Fc (blocked ligand). Column head on the sheet reads 'EC50nM'; the text calls these values IC50. As for the experimental part:
as §1
(In general: An ELISA detects its analyte on a solid surface through an enzyme-linked reagent.)

Test [10] shares this target. Nature of the test: SPR (Biacore T200): human PD-L1-Fc amine-coupled on a CM5 chip, Affimer monomer titrated as analyte, 1:1 Langmuir fit. The method, then:
BIACORE™ T200 binding kinetic analysis was performed on monomer AFFIMER® clones with running buffer HBS-EP+ (Cytiva) and a series S sensor CM5 chip immobilized with human PD-L1-Fc (R&D Systems) in 10 mM Sodium acetate pH4.0 μsing amine coupling reagents (Cytiva). A concentration titration of AFFIMER® monomer was run as analyte with an association time of 150 seconds, followed by a dissociation time of 300 seconds at a flow rate of 30 μl/min. For Clone 80, the association time was increased to 500 seconds and 1000 seconds dissociation time. The human PD-L1-Fc immobilized surface was regenerated with 3-3.5 mM NaOH solution (Cytiva) for 20-30 seconds at 20 μl/min flow rate. The kinetic data was blank subtracted and fit to a 1:1 Langmuir binding model (BIAcore evaluation software; Cytiva) to calculate an apparent KD value.

Read-outs that look alike come from different tables or passages of the source.

T2 sequence (Q9NZQ7 19-290): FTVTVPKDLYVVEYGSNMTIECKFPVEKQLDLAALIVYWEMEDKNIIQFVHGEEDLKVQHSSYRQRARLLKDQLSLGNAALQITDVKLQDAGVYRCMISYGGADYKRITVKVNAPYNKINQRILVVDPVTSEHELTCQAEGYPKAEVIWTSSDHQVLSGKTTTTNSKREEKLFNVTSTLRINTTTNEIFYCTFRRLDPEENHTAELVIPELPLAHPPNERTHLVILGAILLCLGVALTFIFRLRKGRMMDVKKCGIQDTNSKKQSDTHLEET
T1 sequence (Q9NZQ7 19-239 limits assumed): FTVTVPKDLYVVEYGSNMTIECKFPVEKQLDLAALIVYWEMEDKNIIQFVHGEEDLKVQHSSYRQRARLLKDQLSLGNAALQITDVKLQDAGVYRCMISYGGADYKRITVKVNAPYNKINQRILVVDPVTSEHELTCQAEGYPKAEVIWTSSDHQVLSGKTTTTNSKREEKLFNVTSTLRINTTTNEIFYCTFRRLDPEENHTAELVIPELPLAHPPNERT
Sequence of papain (P00784 134-345 limits assumed): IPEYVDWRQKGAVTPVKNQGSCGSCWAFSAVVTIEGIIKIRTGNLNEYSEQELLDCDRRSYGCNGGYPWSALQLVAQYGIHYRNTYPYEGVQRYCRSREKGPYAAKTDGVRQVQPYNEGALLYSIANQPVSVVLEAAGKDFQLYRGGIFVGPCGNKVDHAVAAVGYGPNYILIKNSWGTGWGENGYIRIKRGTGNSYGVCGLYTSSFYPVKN

As to Stefin A (from UniProt P01040 1-98), in test [1], the IC50, inhibition of papain cleavage of Z-Phe-Arg-AMC stood at 3.8 nM.

B1: Clone 80 H52A (designed binder)
chain: MIPGGLSEAKPATPEIQEIVDKVKPQLEEKTGETYGKLEAVQYKTQVVRRKAFPQWPGTNYYIKVRAGDNKYMHLKVFKSLDLQPREVFQEDLVLTGYQVDKNKDDELTGF
notes: alanine mutant of Clone 80 made in E. coli
Take B1: in test [2], binding was put at a Kd of 38 nM.

B2: Clone 80 Q84A (designed binder)
chain: MIPGGLSEAKPATPEIQEIVDKVKPQLEEKTGETYGKLEAVQYKTQVVRRKHFPQWPGTNYYIKVRAGDNKYMHLKVFKSLDLAPREVFQEDLVLTGYQVDKNKDDELTGF
notes: as for B1
As to B2, binding in [2] was characterised by a dissociation constant (Kd) of 0.61 nM.

B3: Clone 80 Q55A (designed binder)
chain: MIPGGLSEAKPATPEIQEIVDKVKPQLEEKTGETYGKLEAVQYKTQVVRRKHFPAWPGTNYYIKVRAGDNKYMHLKVFKSLDLQPREVFQEDLVLTGYQVDKNKDDELTGF
notes: as for B1
On to B3, for which the Kd in [2] came to 1.69 nM.

B4: Clone 80 R50A (designed binder)
chain: MIPGGLSEAKPATPEIQEIVDKVKPQLEEKTGETYGKLEAVQYKTQVVRAKHFPQWPGTNYYIKVRAGDNKYMHLKVFKSLDLQPREVFQEDLVLTGYQVDKNKDDELTGF
notes: as for B1
On to B4, for which the binding result in test [2] is reported as “no binding”.

B5: Clone 80 P54A (designed binder)
chain: MIPGGLSEAKPATPEIQEIVDKVKPQLEEKTGETYGKLEAVQYKTQVVRRKHFAQWPGTNYYIKVRAGDNKYMHLKVFKSLDLQPREVFQEDLVLTGYQVDKNKDDELTGF
notes: as for B1
Molecule B5 had a Kd in test [2] of 0.93 nM.

B6: Clone 80 V88A (designed binder)
chain: MIPGGLSEAKPATPEIQEIVDKVKPQLEEKTGETYGKLEAVQYKTQVVRRKHFPQWPGTNYYIKVRAGDNKYMHLKVFKSLDLQPREAFQEDLVLTGYQVDKNKDDELTGF
notes: as for B1
Consider B6, for which the “EC50 (read off the curve); Promega PD-1/PD-L1 blockade bioassay, fold of induction” value (from here on “EC50 (read off the curve) … fold of induction”) in test [3] was roughly 100 nM. In [2], this molecule returned a Kd of 1.96 nM. In [4], the IC50 was 2.56 nM.

B7: Clone 80 R49A (designed binder)
chain: MIPGGLSEAKPATPEIQEIVDKVKPQLEEKTGETYGKLEAVQYKTQVVARKHFPQWPGTNYYIKVRAGDNKYMHLKVFKSLDLQPREVFQEDLVLTGYQVDKNKDDELTGF
notes: as for B1
B7: the “EC50 (read off the curve) … fold of induction” value in test [5] was roughly 200 nM. This molecule returned a Kd in test [2] of 2 nM. Moreover, the IC50 in [4] is 4.83 nM.

B8: Clone 80 P85A (designed binder)
chain: MIPGGLSEAKPATPEIQEIVDKVKPQLEEKTGETYGKLEAVQYKTQVVRRKHFPQWPGTNYYIKVRAGDNKYMHLKVFKSLDLQAREVFQEDLVLTGYQVDKNKDDELTGF
notes: as for B1
In turn, B8 had a Kd in [2] of 2.53 nM.

B9: Clone 80 L83A (designed binder)
chain: MIPGGLSEAKPATPEIQEIVDKVKPQLEEKTGETYGKLEAVQYKTQVVRRKHFPQWPGTNYYIKVRAGDNKYMHLKVFKSLDAQPREVFQEDLVLTGYQVDKNKDDELTGF
notes: as for B1
Turning to B9, the affinity in test [2], expressed as Kd, was 1.48 nM.

B10: Clone 80 R86A (designed binder)
chain: MIPGGLSEAKPATPEIQEIVDKVKPQLEEKTGETYGKLEAVQYKTQVVRRKHFPQWPGTNYYIKVRAGDNKYMHLKVFKSLDLQPAEVFQEDLVLTGYQVDKNKDDELTGF
notes: as for B1
Consider B10, for which the “EC50 (read off the curve) … fold of induction” value in test [6] was roughly 70 nM. Moreover, binding in test [2] was characterised by a dissociation constant (Kd) of 4.02 nM. The half-maximal inhibitory concentration (IC50) in test [4] was found to be 2.33 nM.

B11: Clone 80 P57A (designed binder)
chain: MIPGGLSEAKPATPEIQEIVDKVKPQLEEKTGETYGKLEAVQYKTQVVRRKHFPQWAGTNYYIKVRAGDNKYMHLKVFKSLDLQPREVFQEDLVLTGYQVDKNKDDELTGF
notes: as for B1
Turning to B11, the Kd in test [2] is 8.91 nM.

B12: Clone 80 W56A (designed binder)
chain: MIPGGLSEAKPATPEIQEIVDKVKPQLEEKTGETYGKLEAVQYKTQVVRRKHFPQAPGTNYYIKVRAGDNKYMHLKVFKSLDLQPREVFQEDLVLTGYQVDKNKDDELTGF
notes: as for B1
Turning to B12, in test [2], the binding result is recorded as “no binding”.

B13: Clone 255 (designed binder)
chain: MIPRGLSEAKPATPEIQEIVDKVKPQLEEKTNETYGKLEAVQYKTQVLAREGRQDWVLSTNYYIKVRAGDNKYMHLKVFNGPWVPFPHQQLADRVLTGYQVDKNKDDELTGF
notes: type I Affimer monomer
Consider B13, for which, in [7], the “IC50, PD-1/PD-L1 blockade Bioassay (Promega)” value was 30 nM. Also, in test [8], the “% (cells in the positive gate)” value was 98% and the MFI worked out at 1010 MFI. In test [9], this molecule showed an EC50 of 0.205 nM.

B14: Clone 256 (designed binder)
chain: MIPRGLSEAKPATPEIQEIVDKVKPQLEEKTNETYGKLEAVQYKTQVLAKEHGPDSWWSTNYYIKVRAGDNKYMHLKVFNGPQEKNQWVEEADRVLTGYQVDKNKDDELTGF
notes: type I Affimer monomer
On to B14, for which, in [8], the “% (cells in the positive gate)” value amounted to 98.1% and the MFI came out at 1240 MFI. Besides, in [9], the midpoint of the response, the EC50, lay at 8.55 nM.

B15: Clone 52 (designed binder)
chain: MIPGGLSEAKPATPEIQEIVDKVKPQLEEKTGETYGKLEAVQYKTQVVGIREDWNWSGTNYYIKVRAGDNKYMHLKVFKSLFEPKKLEPAEDLVLTGYQVDKNKDDELTGF
notes: His-tagged
As to B15, in test [9], a half-maximal effect (EC50) was put at 197 nM.

B16: Clone 54 (designed binder)
chain: MIPGGLSEAKPATPEIQEIVDKVKPQLEEKTGETYGKLEAVQYKTQVVINQQQIKHSGTNYYIKVRAGDNKYMHLKVFKSLWQHIPPDFWEDLVLTGYQVDKNKDDELTGF
notes: type III Affimer monomer; His-tagged
In [10], B16 came in with a Kd of 45.6 nM, a koff of 0.0909 s⁻¹ and a kon of 1.99e+06 M⁻¹ s⁻¹. For the same molecule, the response in test [9] was half-maximal at 16.9 nM (EC50).

B17: Clone 58 (designed binder)
chain: MIPGGLSEAKPATPEIQEIVDKVKPQLEEKTGETYGKLEAVQYKTQVVKQLIIWHWTGTNYYIKVRAGDNKYMHLKVFKSLFKNSNSHLEEDLVLTGYQVDKNKDDELTGF
notes: His-tagged
On to B17, for which, in test [9], the EC50 stood at 69.9 nM.

B18: Clone 111 (designed binder)
chain: MIPGGLSEAKPATPEIQEIVDKVKPQLEEKTGETYGKLEAVQYKTQVDIQDRLGGFIGTNYYIKVRAGDNKYMHLKVFKSLHFYRGILYREDLVLTGYQVDKNKDDELTGF
notes: His-tagged
Regarding B18, in test [10], binding was characterised by a dissociation constant (Kd) of 44 nM, the koff was 0.0457 s⁻¹ and the kon is 1.04e+06 M⁻¹ s⁻¹.

By Kd is commonly meant the constant that tells how readily two partners part at equilibrium. In general, IC50 refers to the concentration at which inhibition is half-maximal. For orientation: EC50 means the concentration at which the effect is half-maximal. Low readings indicate an effect from little substance, high ones a need for much substance. As a reminder, the koff is the first-order rate constant of dissociation. Read a low koff as a long-lived complex. In general, kon refers to a measure of how fast the partners come together.
